Here are results for 1 molecule from patent US9844563B2, “Compositions, kits, and methods to induce acquired cytoresistance using stress protein inducers” (FRED HUTCHINSON CANCER RESEARCH CENTER, priority 2014, dated 2017).

Details of data set [1]: species or system mice. As to conditions: mouse, in vivo, iv.
The subject of another data set is HO-1 mRNA. Kind of data set: Renal cortical HO-1 mRNA (RT-PCR) after IV myoglobin, SnPP or both. Format: in vivo, mice. The text has this:
(§1) The Glycerol Model of AKI. This is a widely used model of rhabdomyolysis-induced AKI that has been employed worldwide for 50 years. The model was used to test whether prophylactic interventions confer protection against AKI. Basically, the protocol is as follows: Male CD-1 mice (35-45 grams), obtained from Charles River Laboratories, Wilmington, Mass. were studied. Mice were maintained under standard vivarium conditions and generally housed for 1-3 weeks prior to study. The mice were placed in a cylindrical restraining cage, and then were given a tail vein injection of the test substances (see below) or test substance vehicle. The mice were then returned to their cages. Eighteen hours (hrs) later, the mice were briefly anesthetized by isoflurane inhalation, and given an intramuscular injection of hypertonic (50%) glycerol in a dose of 9 ml/Kg body weight. The dose is divided in two, with half injected into the muscle of each of the hind limbs. The mice were then returned to their cages. Eighteen hrs later, the mice were deeply anesthetized with pentobarbital (50-100 mg/Kg), the abdominal cavity was opened through a midline abdominal incision, a blood sample was obtained from the abdominal vena cava and the kidneys were resected. A kidney cross section was obtained and fixed in formalin for subsequent histologic analysis. The terminal blood samples were analyzed for BUN and creatinine, using commercially available assay kits. The remaining kidney tissue was subjected to cortical dissection, and the cortical tissues were then extracted for protein and RNA. The protein samples were saved for analysis of HO-1 levels, and the RNA samples were subjected to RT-PCR to quantify HO-1 mRNA as well as levels of other stress gene mRNAs (e.g. NGAL, haptoglobin, hemopexin, hepicidin).
(§2) Myoglobin+SnPP: To 5 mg of dry myoglobin was added 0.9 ml of PBS+0.1 ml of a stock SnPP solution (50 umole/ml). The resulting final concentrations were 5 mg/ml myoglobin+5 umoles/ml of SnPP. The tail vein was injected with 200 ul of this solution, which equals 1 mg myoglobin+1 umole SnPP. […]
Four hr post myoglobin vs myoglobin+SnPP vs SnPP alone experiments. To confirm that the myoglobin+SnPP has a synergistic effect in inducing HO-1 mRNA and HO-1 protein levels, each of the above combinations have been administered alone via tail vein injection. Four hrs later, the mice were sacrificed as noted above and the kidneys were harvested for assessment of HO-1 mRNA and protein levels. For additional information regarding methods, see Zager et al., Am J Physiol Renal Physiol. 2014 Jul. 30. Pii.

A further data set has as its system Haptoglobin. Briefly: Haptoglobin protein expression after SQ myoglobin with or without PEG. Format: in vivo, mice. As to conditions: 4 hour time point after SQ injection. On the procedure: Myoglobin+PEG: To a stock solution of 20 mg/ml Mgb in PBS was added 100 mg/ml of PEG-6000; […]. This was administered as a subcutaneous injection in the dorsal neck (250 ul total injection). For combined Mgb/PEG+SnPP, SnPP was added to the above in a concentration of 3 mg/ml.

Another data set concerns HO-1. Briefly: Renal cortical HO-1 protein (ELISA) after IV myoglobin, SnPP or both. As to conditions: 1 mg Myoglobin, 1 μmole SnPP. Format: in vivo, mice.
Description: as §1, §2
Four hr post myoglobin vs myoglobin+SnPP vs SnPP alone experiments. To confirm that the myoglobin+SnPP has a synergistic effect in inducing HO-1 mRNA and HO-1 protein levels, each of the above combinations have been administered alone via tail vein injection. […] For additional information regarding methods, see Zager et al., Am J Physiol Renal Physiol. 2014 Jul. 30. Pii.

For another data set, the system named is HK-2 cells. Kind of data set: HK-2 cell injury by MTT assay. The conditions noted are these: 10 mg/mL, 18 hr incubation, compared to control incubated cells. Format: cell-based. The method, then:
HK-2 cells (a proximal tubule cell line derived from normal human kidney) were incubated in keratinocyte serum free medium either under normal (control) conditions or in the presence of 10 mg/mL horse skeletal muscle myoglobin or nitrited myoglobin (produced by equimolar Na nitrite addition to 10 mg/ml myoglobin). After 18 hr incubations, the severity of cell injury (% cell death) was assessed by MTT assay. Myoglobin induced 40% cell death (40% decrease in MTT cell uptake), compared to control incubated cells. Nitrite binding to myoglobin reduced cell death by 75%. Thus, nitrite binding is able to reduce myoglobin's cytotoxic effects.
(In general: Tetrazolium dyes change colour on reduction, which living cells bring about.)

Values joined by “and” are separate entries in the source; they are usually repeats but may differ in a detail not shown here. Equal entries are not always repeated.

B1: myoglobin (protein, listed as Homo Sapiens)
chain: MGLSDGEWQLVLNVWGKVEADIPGHGQEVLIRLFKGHPETLEKFDKFKHLKSEDEMKASEDLKKHGATVLTALGGILKKKGHHEAEIKPLAQSHATKHKIPVKYLEFISECIIQVLQSKHPGDFGADAQGAMNKALELFRKDMASNYKELGFQG
notes: Lyophilized horse skeletal muscle myoglobin (Sigma Chemicals) used as the test agent
B1: the “Plasma LDH, Average” value in data set [1] stood at 4.47 Absorbance U LDH/ml. For the same molecule, in the data set with HO-1 mRNA (4 hrs post IV injection, average), the “HO-1 mRNA induction (HO-1/GAPDH mRNA), Average” value is recorded as 3.93 HO-1/GAPDH mRNA. Also, the “HO-1 mRNA induction (HO-1/GAPDH mRNA), individual mice” value with HO-1 mRNA (4 hrs post IV injection, single animals) is 7.78 HO-1/GAPDH mRNA and 2.93 HO-1/GAPDH mRNA and 2.58 HO-1/GAPDH mRNA and 2.41 HO-1/GAPDH mRNA. The “HO-1 mRNA induction overnight post injection, Average” value in the data set on HO-1 mRNA (Ovnt (roughly 18 hrs) IV, 1 mg Myoglobin, 1 μmole SnPP, average) was 0.58 HO-1/GAPDH mRNA. The “HO-1 mRNA induction overnight post injection, individual subjects” value with HO-1 mRNA (Ovnt (roughly 18 hrs) IV, 1 mg Myoglobin, 1 μmole SnPP, single animals) is 0.71 HO-1/GAPDH mRNA and 0.53 HO-1/GAPDH mRNA and 0.51 HO-1/GAPDH mRNA. In addition, the “Haptoglobin Protein Expression” value in the data set with Haptoglobin is reported as 32.7 ± 6.3 ng/mg protein. Further, in the data set with HO-1 (Cortex, 4 hr IV, average), the “HO-1 Protein Expression (by ELISA), Average” value came to 45.4 ng HO-1/mg protein. In addition, in the data set on HO-1 (Cortex, 4 hr IV, single animals), the “HO-1 Protein Expression (by ELISA), individual mice” value was 36.0 ng HO-1/mg protein and 40.7 ng HO-1/mg protein and 40.2 ng HO-1/mg protein and 64.7 ng HO-1/mg protein. The “HO-1 protein induction overnight post injection, Average” value in the data set with HO-1 (Ovnt (roughly 18 hrs) IV, average, in ng/mg protein) stood at 36.7. In addition, the “HO-1 protein induction overnight post injection, individual subjects” value with HO-1 (Ovnt (roughly 18 hrs) IV, single animals, in ng/mg protein) is 50.6 and 34.9 and 24.6. Besides, the “cell death (decrease in MTT cell uptake)” value in the data set on HK-2 cells came out at 40%.
